This series deals with the molecule itself. Put plainly: PELDOR (DEER) spectroscopy; spin-labelled BetP in E. coli polar lipid proteoliposomes (lipid to protein 20:1), 200 mM Tris-HCl pH 7.5 in deuterated water, with 500 mM NaCl or with 300 mM NaCl and 5 mM betaine; Q-band, four-pulse sequence; distance distributions by Tikhonov regularisation.

B1: BetP G450R5/S516R5 in the background of the C252T cys-less variant (spin-labelled glycine betaine symporter BetP of Corynebacterium glutamicum) (natural protein, UniProt P54582 1-595, looked up)
chain: MTTSDPNPKPIVEDAQPEQITATEELAGLLENPTNLEGKLADAEEEIILEGEDTQASLNWSVIVPALVIVLATVVWGIGFKDSFTNFASSALSAVVDNLGWAFILFGTVFVFFIVVIAASKFGTIRLGRIDEAPEFRTVSWISMMFAAGMGIGLMFYGTTEPLTFYRNGVPGHDEHNVGVAMSTTMFHWTLHPWAIYAIVGLAIAYSTFRVGRKQLLSSAFVPLIGEKGAEGWLGKLIDILAIIATVFGTATSLGLGALQIGAGLSAANIIEDPSDWTIVGIVSVLTLAFIFSAISGVGKGIQYLSNANMVLAALLAIFVFVVGPTVSILNLLPGSIGNYLSNFFQMAGRTAMSADGTAGEWLGSWTIFYWAWWISWSPFVGMFLARISRGRSIREFILGVLLVPAGVSTVWFSIFGGTAIVFEQNGESIWGDGAAEEQLFGLLHALPGCQIMGIIAMILLGTFFITSADSASTVMGTMSQHGQLEANKWVTAAWGVATAAIGLTLLLSGGDNALCNLQNVTIVAATPFLFVVIGLMFALVKDLSNDVIYLEYREQQRFNARLARERRVHNEHRKRELAAKRRRERKASGAGKRR
modifications: R5 spin label ((1-oxyl-2,2,5,5-tetramethylpyrrolidin-3-yl)methyl methanethiosulfonate) on the cysteines introduced at positions 450 and 516
notes: Glycine betaine symporter BetP (betaine permease), Corynebacterium glutamicum; expressed from pASK-IBA5betP; cys-less C252T background with cysteines introduced at G450 and S516; also called periplasmic spin label pair; betaine permease
Regarding B1, the binding result is listed as “binds”.

The values are drawn from article doi:10.1101/307710, “Assignment of the resting state of the secondary active transporter BetP by integrating spectroscopic measurements and molecular simulations” (bioRxiv, 2018).
